Assay results as given in publication doi:10.1101/2024.06.18.599654 (bioRxiv, 2024).
“And” between values parts separate entries of the source, which are not always exact repeats. Identical values can stand only once.

Target: the molecule itself
Test: SEC

B1: PE11 (Rv1169c) esterase of Mycobacterium tuberculosis, recombinant His-tagged (enzyme)
chain: MSFVTTRPDSIGETAANLHEIGVTMSAHDDGVTPLITNVESPAHDLVSIVTSMLFSMHGELYKAIARQAHVIHESFVQTLQTSKTSYWLTELANRAGTST
For B1, the “stoichiometry N” value was 4 and 2.
